Laboratory results as given in patent US20190100587A1 (COVAGEN, published 2019).
Where a chain is given by its changes, count along the chain named. Numbers in names are those of the source. Where two headings read alike, the source gives them in different places.

Tests used:
[1] = target: T1, human recombinant FcRn (Sino Biological) (human, UniProt P55899 24-297; P61769 21-119); experiment: SPR (BIAcore), FcRn on chip, pH 6.0, steady-state model
T1 construct: Amine-coupled to a CM5 chip (600 RU); also called neonatal Fc receptor

[2] = target: T2, human recombinant FcγRIIIA (158F; R&D Systems) (human, UniProt P08637 17-208); experiment: SPR (BIAcore), human FcγRIIIA (158F) amine-coupled on a CM5 chip, antibody injected
T2 construct: Amine-coupled to a BIAcore CM5 chip (1400 RU); also called CD16A

[3] = target: Human C1q (EMD Millipore) (human, UniProt P02745 23-245; P02746 28-253; P02747 29-245); experiment: SPR (BIAcore T100), antibody amine-coupled on a CM5 chip, human C1q injected
[4] = target: T3, human CD3 on CD3+ Jurkat cells (human); experiment: flow cytometry on CD3+ Jurkat cells, bound antibody detected with anti-human IgG-Alexa488
T3 construct: whole, on cells

[5] = target: T4, His-tagged human FcγRI (R&D, carrier-free formulation) (human, UniProt P12314 16-288); experiment: AlphaScreen competition on His-tagged FcγRI; competitor biotinylated B21M LALA IgG1
T4 construct: also called CD64; human FcγR1

[6] = target: T5, human recombinant FcγRI (Sino Biological) (human, UniProt P12314 16-288, limits assumed); experiment: SPR (BIAcore), FcγRI on chip, kinetic (koff/kon)
T5 construct: Amine-coupled to a BIAcore CM5 chip (1500 RU); also called CD64

[7] = target: T4, His-tagged human FcγRI (R&D, …); experiment: AlphaScreen competition on His-tagged FcγRI
[8] = target: T5, human recombinant FcγRI (Sino …); experiment: SPR (BIAcore), FcγRI on chip, steady-state model
[9] = target: T5, human recombinant FcγRI (Sino …); experiment: SPR (BIAcore), FcγRI on chip, 1:1 Langmuir model
[10] = target: T4, His-tagged human FcγRI (R&D, …); experiment: AlphaScreen competition assay; titrated antibody competes with biotinylated B21M LALA IgG1 for His-tagged human FcγRI
[11] = target: T2, human recombinant FcγRIIIA (158F; R&D …); experiment: SPR (BIAcore), FcγRIIIA 158F on chip, steady-state model
[12] = target: T6, His-tagged human FcγRIIB (R&D, carrier-free formulation) (human, UniProt P31994 46-217, limits assumed); experiment: AlphaScreen competition assay; titrated antibody competes with biotinylated B21M IgG1 for His-tagged human FcγRIIB
T6 construct: also called CD32B
T6 sequence (looked up): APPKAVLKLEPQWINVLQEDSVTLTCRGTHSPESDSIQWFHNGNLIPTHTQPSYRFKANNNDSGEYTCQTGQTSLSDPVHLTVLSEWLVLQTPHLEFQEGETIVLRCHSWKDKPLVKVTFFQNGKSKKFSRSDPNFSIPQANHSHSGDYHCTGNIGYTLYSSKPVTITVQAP

[13] = target: T2, human recombinant FcγRIIIA (158F; R&D …); experiment: SPR (BIAcore), FcγRIIIA 158F on chip, 1:1 Langmuir model
[14] = target: T2, human recombinant FcγRIIIA (158F; R&D …); experiment: SPR (BIAcore), FcγRIIIA 158F on chip, kinetic (koff/kon)
[15] = target: T4, His-tagged human FcγRI (R&D, …); experiment: AlphaScreen competition on His-tagged FcγRI; competitor biotinylated B21M LALA IgG1; remark: listed apart in the source
[16] = target: T4, His-tagged human FcγRI (R&D, …); experiment: AlphaScreen competition assay; titrated antibody competes with biotinylated B21M LALA IgG1 for His-tagged human FcγRI; remark: listed apart in the source

B1: mAb1 DANAPA IgG1 (antibody)
heavy: QVQLQQSGAELARPGASVKMSCKASGYTFTRSTMHWVKQRPGQGLEWIGYINPSSAYTNYNQKFKDKATLTADKSSSTAYMQLSSLTSEDSAVYYCASPQVHYDYNGFPYWGQGTLVTVSAASTKGPSVFPLAPSSKSTSGGTAALGCLVKDYFPEPVTVSWNSGALTSGVHTFPAVLQSSGLYSLSSVVTVPSSSLGTQTYICNVNHKPSNTKVDKKVEPKSCDKTHTCPPCPAPELLGGPSVFLFPPKPKDTLMISRTPEVTCVVVAVSHEDPEVKFNWYVDGVEVHNAKTKPREEQYASTYRVVSVLTVLHQDWLNGKEYKCKVSNKALAAPIEKTISKAKGQPREPQVYTLPPSREEMTKNQVSLTCLVKGFYPSDIAVEWESNGQPENNYKTTPPVLDSDGSFFLYSKLTVDKSRWQQGNVFSCSVMHEALHNHYTQKSLSLSPGK
light: QVVLTQSPAIMSAFPGEKVTMTCSASSSVSYMNWYQQKSGTSPKRWIYDSSKLASGVPARFSGSGSGTSYSLTISSMETEDAATYYCQQWSRNPPTFGGGTKLQITRTVAAPSVFIFPPSDEQLKSGTASVVCLLNNFYPREAKVQWKVDNALQSGNSQESVTEQDSKDSTYSLSSTLTLSKADYEKHKVYACEVTHQGLSSPVTKSFNRGEC
notes: mAb1 with Fc mutations D265A, N297A, P329A (EU numbering); also called DANAPA Fc mutated mAb1
For B1, the Kd [1] was 500 nM, the binding result [2] was “no binding (tested: 2000 nM)” and the binding result [3] was “no binding (tested: 200 nM C1q)”. For the same binder, the “EC50 (read off the curve)” value [4] was ~0.08 nM, the IC50 [5] was > 1000 nM and the “IC50 relative to IgG1” value [5] was > 400 fold.

B2: mAb1 DAPA IgG1 (antibody)
heavy: not shown
light: B1 light
With B2 the Kd [6] was 575 nM, the “fold stronger binding than mAb1 DANAPA IgG1” value [7] was > 37 fold and the binding result [2] was “no binding (tested: 2000 nM)”. The Kd [8] was 1190 nM, the koff [9] was 0.0595 s⁻¹ and the kon [9] was 103000 M⁻¹ s⁻¹. For the same binder, the “EC50 (read off the curve)” value [4] was ~0.1 nM, the IC50 [5] was 17.7 nM and the “IC50 relative to IgG1” value [5] was 7.8 fold.

B3: mAb1 DNNDPG IgG1 (antibody)
heavy: B1 heavy with A269N, A301D, A333G
light: B1 light
notes: mAb1 with D265N, N297D, P329G (EU numbering)
B3: binds [10].

B4: mAb1 N297A IgG1 (antibody)
heavy: not shown
light: B1 light
notes: mAb1 with Fc mutation N297A (EU numbering)
In the case of B4, the Kd [6] is reported as 737 nM, the “fold stronger binding than mAb1 DANAPA IgG1” value [7] is reported as > 37 fold and the binding result [2] is reported as “no binding (tested: 2000 nM)”. The Kd [8] was 1510 nM, the koff [9] was 0.112 s⁻¹ and the kon [9] was 152000 M⁻¹ s⁻¹. The “EC50 (read off the curve)” value [4] was ~0.1 nM, the IC50 [5] was 23.9 nM and the “IC50 relative to IgG1” value [5] was 10.5 fold.

B5: mAb1 LALA IgG1 (antibody)
heavy: not shown
light: B1 light
notes: mAb1 with Fc mutations L234A, L235A (EU numbering)
With B5 the “fold stronger binding than mAb1 DANAPA IgG1” value [7] was > 37 fold, the Kd [8] was 1550 nM and the Kd [11] was 13800 nM. The binding result [12] was “binds”, the “EC50 (read off the curve)” value [4] was ~0.1 nM and the koff [13] was 0.111 s⁻¹. The kon [13] was 14200 M⁻¹ s⁻¹, the IC50 [5] was 27.1 nM and the “IC50 relative to IgG1” value [5] was 11.9 fold. The Kd [14] was 7780 nM.

B6: mAb1 DENQPS IgG1 (antibody)
heavy: B1 heavy with A269E, A301Q, A333S
light: B1 light
notes: mAb1 with D265E, N297Q, P329S (EU numbering)
B6: binds [10].

B7: Anti-PD1 mAb DANAPA IgG1 (antibody)
heavy: QVQLQQSGAELVKPGASVKMSCKAFGYTFTTYPIEWMKQNHGKSLEWIGNFHPYNDDTKYNEKFKGKAKLTVEKSSTTVYLELSRLTSDDSAVYYCARENYGSHGGFVYWGQGTLVTVSAASTKGPSVFPLAPSSKSTSGGTAALGCLVKDYFPEPVTVSWNSGALTSGVHTFPAVLQSSGLYSLSSVVTVPSSSLGTQTYICNVNHKPSNTKVDKKVEPKSCDKTHTCPPCPAPELLGGPSVFLFPPKPKDTLMISRTPEVTCVVVAVSHEDPEVKFNWYVDGVEVHNAKTKPREEQYASTYRVVSVLTVLHQDWLNGKEYKCKVSNKALAAPIEKTISKAKGQPREPQVYTLPPSREEMTKNQVSLTCLVKGFYPSDIAVEWESNGQPENNYKTTPPVLDSDGSFFLYSKLTVDKSRWQQGNVFSCSVMHEALHNHYTQKSLSLSPGK
light: ENVLTQSPAIMSASPGEKVTMTCRASSSVISSYLHWYQQKSGASPKLWIYSTSNLASGVPDRFSGSGSGTSYSLTISSVEAEDAATYYCQQYNGYPLTFGAGTKLEIKRTVAAPSVFIFPPSDEQLKSGTASVVCLLNNFYPREAKVQWKVDNALQSGNSQESVTEQDSKDSTYSLSSTLTLSKADYEKHKVYACEVTHQGLSSPVTKSFNRGEC
notes: DANAPA IgG1 format; also called anti-PD1 antibody; PD-1 specific antibody
B7 was tested, and the IC50 [15] was ≥ 600 nM.

B8: mAb2 G1 C-LC DANAPA IgG1 (bispecific antibody)
heavy: EVQLVESGGGLVQPGGSLKLSCAASGFTFNTYAMNWVRQAPGKGLEWVARIRSKYNNYATYYADSVKDRFTISRDDSKNTAYLQMNSLKTEDTAVYYCVRHGNFGDSYVSWFAYWGQGTLVTVSSASTKGPSVFPLAPSSKSTSGGTAALGCLVKDYFPEPVTVSWNSGALTSGVHTFPAVLQSSGLYSLSSVVTVPSSSLGTQTYICNVNHKPSNTKVDKKVEPKSCDKTHTCPPCPAPELLGGPSVFLFPPKPKDTLMISRTPEVTCVVVAVSHEDPEVKFNWYVDGVEVHNAKTKPREEQYASTYRVVSVLTVLHQDWLNGKEYKCKVSNKALAAPIEKTISKAKGQPREPQVYTLPPSREEMTKNQVSLTCLVKGFYPSDIAVEWESNGQPENNYKTTPPVLDSDGSFFLYSKLTVDKSRWQQGNVFSCSVMHEALHNHYTQKSLSLSPGK
light: not shown
notes: also called CD3/CD33 bispecific FynomAb with Fynomer G1; FynomAb with the DANAPA IgG Fc
For B8, the IC50 [15] was 206 nM.

B9: mAb2 DANAPA IgG1 (antibody)
heavy: B8 heavy
light: QTVVTQEPSLTVSPGGTVTLTCRSSTGAVTTSNYANWVQQKPGQAPRGLIGGTNKRAPGTPARFSGSLLGGKAALTLSGVQPEDEAEYYCALWYSNLWVFGGGTKLTVLGQPKAAPSVTLFPPSSEELQANKATLVCLISDFYPGAVTVAWKADSSPVKAGVETTTPSKQSNNKYAASSYLSLTPEQWKSHRSYSCQVTHEGSTVEKTVAPTECS
notes: Humanized anti-CD3 antibody in DANAPA IgG1 format; also called anti-CD3 antibody mAb2; CD3-specific antibody mAb2
With B9 the IC50 [15] was ≥ 600 nM.

B10: mAb2 D5 C-LC DANAPA IgG1 (bispecific antibody)
heavy: B8 heavy
light: not shown
notes: also called CD3/CD33 bispecific FynomAb with Fynomer D5; FynomAb with the DANAPA IgG Fc
With B10 the “IC50 (read off the curve)” value [16] was ~200 nM and the IC50 [15] was 800 nM.
